For data set [1], the target named is T1, RIG-I CTD H847A/K858A (human, UniProt O95786 792-925, H847A;K858A).
T1 sequence: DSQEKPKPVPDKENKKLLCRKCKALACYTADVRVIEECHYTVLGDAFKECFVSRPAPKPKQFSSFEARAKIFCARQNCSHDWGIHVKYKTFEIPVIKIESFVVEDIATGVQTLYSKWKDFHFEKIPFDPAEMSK
The experiment in a line: ITC.

Data set [2] has as its target T2, RIG-I CTD H847A (human, UniProt O95786 792-925, H847A).
T2 sequence: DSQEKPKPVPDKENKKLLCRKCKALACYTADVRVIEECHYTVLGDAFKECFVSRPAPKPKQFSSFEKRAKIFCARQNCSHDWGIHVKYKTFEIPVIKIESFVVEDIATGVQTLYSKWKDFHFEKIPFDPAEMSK
The experiment in a line: ITC.

The target in data set [3] is T3, RIG-I CTD (human, UniProt O95786 792-925).
T3 sequence: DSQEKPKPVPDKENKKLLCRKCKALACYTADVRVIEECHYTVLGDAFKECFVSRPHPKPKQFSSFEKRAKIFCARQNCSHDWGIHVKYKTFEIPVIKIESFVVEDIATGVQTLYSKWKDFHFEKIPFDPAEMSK
The experiment in a line: ITC.

Data set [4] concerns the target T3, RIG-I CTD. In words: ITC. This is another data set of the same source.
For data set [5], the target named is T2, RIG-I CTD H847A. The experiment in a line: EMSA.

Like-named read-outs stand apart in the source and are kept apart here.

B1: 5'-ppp-dsRNA 12-mer (dsRNA)
RNA 1: GACGCUAGCGUC
RNA 2: GACGCUAGCGUC
modifications: 5'-triphosphate on both strands
Consider B1, for which the Kd in data set [1] came to 649 nM; in data set [2], 162 nM; in data set [3] it was 29.2 nM; in data set [4], 215 nM.

B2: 5'-ppp-dsRNA 12-mer, 32pCp-labelled (dsRNA)
RNA 1: GACGCUAGCGUC
RNA 2: GACGCUAGCGUC
modifications: 5'-triphosphate; labelled strand (ppp-11-mer S1 + pCp) carries an additional 3'-phosphate
In the case of B2, in data set [5], the binding signal is about 10 fold weaker than WT.

Source of the values: article PMC3744876.
